# Assay results: the supplement of paper PMC12636428
# System: Saccharomyces cerevisiae
# Experiment: transcriptional activation domain activity (GFP:mCherry ratio, weighted mean of sorted bins, harmonized to initial dataset scale) (arbitrary fluorescence ratio units); higher = stronger transcriptional activation
# Conditions: beta-estradiol 1 µM; induction time 4 h
# In short: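 After a 1:5 dilution into SC with 1 uM beta-estradiol and 4 hours at 30 °C, yeast diploids carrying a GFP reporter and URA3-integrated barcoded tiles were sorted into 8 bins by GFP:mCherry ratio. The tiles were fused to an estradiol-inducible synthetic transcription factor. Barcodes were sequenced, tiles below 50 reads were discarded, and activation activity was taken as the read-weighted mean of bin median fluorescence, averaged across barcodes and linearly mapped onto the initial dataset scale.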
sequence,measurement,value
MLSSWSTSLNLVFFSLTWTTIAMTYSPLQLEFFAPLLLRTFLYLLPSALFLLF,transcriptional activation domain activity,67600
AVAPASTPVATEASPAGAPDAKGKKKEKAAAGANADAAGGKKGKGGAQAAPAT,transcriptional activation domain activity,49500
DAKSGTSGGLFGSAAPASSTAPNSSGAATAGASSTTTTAPAGGLFGAKPAAAS,transcriptional activation domain activity,< 6570
MINFWLFIFLSSSLLFLPFFFLYIFFNYYYFFLFTQYIMVTWFFENYQFANAW,transcriptional activation domain activity,56200
MANVRFFVGLQRLFPFLAFHHLLMLCHIIVIILLSILLAGCSSYSSMINVYIL,transcriptional activation domain activity,70400
HAARALSLPSISPQFFVLLHKLSFPLLPFWLPMYFLLCITLPSSWLVLLYLFL,transcriptional activation domain activity,37800
MIILGRMGYSHVLLLPFFNSICFSFLFLPHSLCCLHFNSFYTYFLLLPHPHLF,transcriptional activation domain activity,61900
KKEEVKQEPAAPTPAPAPAPTGASSDRGGRGQGRGRARGDSSRGGGGRAAAPP,transcriptional activation domain activity,38000
MNFWAWFFFFFYSLLILITSFLSFVFFFSLFLFWFLFLFLFPFLSLLIFPLPS,transcriptional activation domain activity,41100
GSSAFGASGSSGGAFGQPAAQQQQSAFGGGGGLFGKPQGSSFGSTALATTAGQ,transcriptional activation domain activity,55800
HYRIRLIYFMHFVAFGFGLSSILVNLFLCRPLRKNWMTDVNGRCFNRDAFYYA,transcriptional activation domain activity,58600
DPDASSFSGTVLDKAGSIARLSEDEQGGERAAKRRRLNKKVGMEAIAGLVGEY,transcriptional activation domain activity,40800
LVAFGMRFGGPTLLKLYFLPWMACHLIFALVPVIITLPMQWANHWIVALTYLH,transcriptional activation domain activity,57900
MWCTRWFLPLLLLPLPTAPPYFLLLFLFSLTMHAKPCFYCIVLLTTLFVSSCY,transcriptional activation domain activity,47800
KASKSKKRKHHHHKSAVSSPEASDADTASQSSKRSKKSKRRHADADARAAANG,transcriptional activation domain activity,36700
MSSLYFFDLMISWLLCFLAFRGDLFYMVFFFLYHFFFLLCGFWFFFCTDIHFY,transcriptional activation domain activity,59900
MYRCYCGLLMVPWYPCAVVFHVCLCGVRWGCENGVIGVYVLGWWVLWFVVLFG,transcriptional activation domain activity,32600
KWIIPTPFASHAFNPCDGFLQSLPYHIYVYMIPMHKYLYLLMFVLVNFWTVMI,transcriptional activation domain activity,49700
AHVGVGISGVEGLQAARSADIAISQFRYLKKLLLVHGAWSYRRLSKLILYSFY,transcriptional activation domain activity,82600
EAPAPKKARGRPKKAAVKEDDAGSEEEAPAPKKAKGRLPKAVLKEEAESEAEA,transcriptional activation domain activity,12900
TRHLHFTRYHIFTNSKCILLAVGKLLYCACALGWYGLIVGFVVTVLMLCQDSL,transcriptional activation domain activity,22600
VSLRSLPYEVGFKQNFNLILNHDASLIKTTVRHLLVYCSLIKAIKLCLIFINK,transcriptional activation domain activity,52500
RLLIVFAWMCRLGCWIEMDHEARLVLLKFLATFKANSNNVISYKLDQYYLTGL,transcriptional activation domain activity,80100
IQAYLVNFLSSACLMNFWVTLTFLLGGEPYHYSTYVLLVGWMFIYLILLFGLI,transcriptional activation domain activity,37700
GLEFVEPWTELIEQRYMQCGDGDNNNFENLYNLFVNSNNINNDINNSRPITRK,transcriptional activation domain activity,81200
HISCLIISVFLCELMVHIPLSTLFYVGLYFPVHFISTPGYFYFIYCILFQLFL,transcriptional activation domain activity,47300
MAPETKNKKRKSGVTASSPSTKKLKKAEAPVAEEAPAPVKSTKKSKAAAPKAE,transcriptional activation domain activity,43300
RVEEEGKSGVPAGDRFCGISLRPGILTDGEAGGVKVGKIGTGGKTARATVAES,transcriptional activation domain activity,22900
LLSLPNYFGIVFQVLKPEITTMYIAALDLCNLHTLYKAILFTLLALTWLILVF,transcriptional activation domain activity,50500
VMSYLLCVALVFPVMIVLMLLGCVWFLIVLFFMLGVLIFIMCIGPLYVILKAP,transcriptional activation domain activity,10200
HHTHHSSSTDWSRAFRKWSVRLLLAIAFPTTYLLGAAMPPKIILMLYPRYSPP,transcriptional activation domain activity,39100
DAAAAAAAKKKKQQQQQQQEKEEEAKKEKASSASSASRASSISAHKASVSAAK,transcriptional activation domain activity,19700
VKGGGDSRKVKGAESGQSGSGSGKQSGSRRRAVSSSRTRGSKEPDASIKSNGT,transcriptional activation domain activity,35100
MNITTVRALGLYILFHQYLIMIEDFICGFLIWYLRYFFYFTYLLCTVISYLSC,transcriptional activation domain activity,78500
AAPSKPASPTKAAAPVSKPVTPAPQKAAPVQQQSKPATPAPQQKAATPAPKTA,transcriptional activation domain activity,29500
LMLQRLDIIRQILYLYRDPHLQIVLNRYYKSFNRRKIFLMNPVINALSNMPYF,transcriptional activation domain activity,47500
NKKRETRKGESTKSNDEEEEEEEDDDDEKKQGQKKQSNGQSKKSNGSSKKEED,transcriptional activation domain activity,48700
RKLRDVHVPEVPLPLGPDGKADRKKSSLIMVHYVLMHSREVILLCLHRSFFAQ,transcriptional activation domain activity,65300
TSVLPIIAVHCAYKTPISDYILAFCYLLPYIYHSMGYLVRWLYLGLRVIFVAK,transcriptional activation domain activity,70400
MPTNFTKEGRTCTVTYKIQVHMIRPAVFIDFITLWIRQTFGMIVMVVTAELPR,transcriptional activation domain activity,47800
LGSCFLLSLVHPFFLLYYLYLRLLSLCFLYLRFVFFFCSPMSFFILLSIMSFL,transcriptional activation domain activity,60100
FLVCSFHHSIFGFFFWLFFDFFSFLHWRLCVLFPFWFRSKSSFPSFFFIVIIS,transcriptional activation domain activity,51300
FKSQLFCFYNLRLFVSCQPKHLNDLVDLLKKYHGSHVYQFVFTLSAFLERVAQ,transcriptional activation domain activity,48800
RGSYRLFLIHARLICTIHPLHLPLLYFPAYSMCILYPTPTYITSCSLLAVSFV,transcriptional activation domain activity,55700
PLVVFPNFMAVVIIFGFFFMYFEDFNKEVFLHNKHHQIWVYLHFPLHLCQVAF,transcriptional activation domain activity,78400
AAMLLQRVDPNILGNAANVDKTLIHSMAWCLAKIMLFFDPSYITGLLQAYFKL,transcriptional activation domain activity,46300
KKLQNDILRPVDWIMYYYFASHIPITVLFDLQAIYPTNWVPQLLLDINAQYIN,transcriptional activation domain activity,37500
IVSPFSTSVRSVSSCVELIRQGRGALATSITGYKYLILYGQVMMMLKIFTFYF,transcriptional activation domain activity,55600
LRAEGLFQCNYLSYFIELTRYTFLFSMFLILLRSGWFGTSGLFLGMLWHQLVF,transcriptional activation domain activity,37500
MNQSPDDTGGEDQTTAPSWRACDNCRARKIKCDKRSPCSNCRVSNAICRTAKK,transcriptional activation domain activity,30600
EDSEEKPRKKTPRKAAASKPKSKGKKKADSDSGEESDAEPRAKKSATKGKGKK,transcriptional activation domain activity,25500
MLLNLRGHIDEHLQYIIATSFKLMDTAETFALRLANLEVLINTVLYNAAAALH,transcriptional activation domain activity,48600
LLLPELFFFHLYWALIAFRFIPLLTLLRGMGYCLFFSLLFFFLFFSLFSVLFT,transcriptional activation domain activity,53000
MAPQRRPAAEVISSDSDDEAARPTGSAATRSAGGGGAGGGRRIVLTGRGNNSS,transcriptional activation domain activity,20400
KLLRWYIYPCAYRLGTVCCLFLSEIYNERHRKLSYAVMEPDTWPIMFTDKLAR,transcriptional activation domain activity,74900
GLFASCWQRFAQAYRPCIGLTRIFVLCLLEVVLWLKGLEILFWFFLWCWCTTT,transcriptional activation domain activity,50200
MGWGAFWRWLVGCSLVLYVFYPLLSYLRCFILVFRFVYIYLPLTDCFLLFISK,transcriptional activation domain activity,53300
LSLLLQDRPRFIFGFSFLLLKSIWCIGFYFINSRLKCMCILYILLIDILYFTF,transcriptional activation domain activity,49800
GDEKLAKGRGDEKPAKGKGKEKKAKAKGKKAKGEKKAEDKENAVKESLENAVK,transcriptional activation domain activity,32800
RSGYGSRDLYEYDLIEVRRTQVETALILTGLISLMKTNRSRERYVHTEHVTGT,transcriptional activation domain activity,39500
WERIREKASILALAYRLGVLLFALHFLFCLSQPPRFARLFWLSFSLLVPSTFF,transcriptional activation domain activity,59000
PYLSRLGEKNILADLMEFYRCKESWSLQSGLVFIRRIILQQVPIDVRILCAFL,transcriptional activation domain activity,35500
SAFDLADAIEKQSVSKLEKFSTTALSLELNCLVCLIKVLLKMYLSSDPAFEPY,transcriptional activation domain activity,42200
MTSYVHQALVRFIGVTLTYQEYKEKLGRSFYLRNLAENTTMLGFLCWVNILHF,transcriptional activation domain activity,33800
MSMGIEFPFFTFRFSPSPLLLLLPFPPPFLPPFCLSAFFPSPLSPLPFPFLPS,transcriptional activation domain activity,51400
YKEWDELVKYFFRQVTKRVQERPELVVEMLFSKIPATIFFLDHGYDRELPSRA,transcriptional activation domain activity,46400
ALHLVWSGSTIYVKPLPACLVDFDFFMRFISPFPHIYEDACGFLLTYARLIVH,transcriptional activation domain activity,89800
LKLLVCVLWCLDTFDFILNCNLLYLFLVTNYMNPLILIKRPPWSLVLHVAVTV,transcriptional activation domain activity,53400
GAVINLSLSLGRRTQVEEAIKLVRYKAHYVSGSIDHGLHRLLVWAYTLLTVRI,transcriptional activation domain activity,57100
MAPTTPTNSNGETPVKRGRGRPPKPEHEKKLKPAPSGRGRGRPKGSGVKKTGG,transcriptional activation domain activity,39100
TPSSLLHLFPRVQEFLLFYSIHLSISWVWSCLILFYDVSFTIFSIFIILLLFL,transcriptional activation domain activity,60300
MRTLLMCHANRGIGFFWSGVFLWKVNILAGNGGYSSMCAYVNWLRLTWFSFVA,transcriptional activation domain activity,40900
RHLPAVNGGKLTSYAIVGEGSMSPHFVWTAHHAVYVVDGWSLALLFRKVELRY,transcriptional activation domain activity,48200
EEAAVESEAPKKKGRAKRVKPEPEVDDEPAVEQPKKKGRVKKAKVEPEPEADE,transcriptional activation domain activity,46900
